Laboratory results: a protein production outcome set (Wang et al. 2014)

assay: label from the status in PepcDB records

Sequence | protein production
MKTMRKILEIDEERCNGCGLCVLDCAEGAIAIVDGKAKIVSDSFCDGLGACIGSCPQDALHIIEREAVPFDEEAAMEHVRSQGGTPEANHGHGHGAGTPHRHGQSAEHGGHGRIPGHGGCPGAAMRRFDSAESPAFAVAEGTVKGPGHWPLKIRLVPPTAPFLKGADVLVAADCAAAASPIFHSHFAAGKVVLIGCPKFDDTEAYAERLADILRVSGIASLTVLRMEVPCCRGLSAAAEKARVLSGTSLVLKEVIMTCAGGPAAPAPLSSLLEHHHHHH | not failed
MKTRDKIIQASLELFNEHGERTITTNHIAAHLDISPGNLYYHFRNKEDIIRCIFDQYEQHLLLGFKPYADQKVDLELLMSYFDAMFYTMWQFRFMYANLADILARDDTLKARYLKVQQAVLEQSIAVLNQLKKDGILQIEDERIADLADTIKMIIGFWISYKLTQSSIATISKASLYEGLLRVLMIFKAYSTPDSLANFDRLEQHFRSQSN | not failed
MKTRINYAKASPEAFKAVMALENYVQSSGLEHRFIHLIKLRASIINGCAFCVDMHVKESRHDGLSEQWINLMSVWRESPVYTEQERALLGWVDAVTKIAETGAPDDAFETLRAHFSDEEIVKITVAIGAINTWNRIAVGFRSQHPVEAAAKAA | not failed
MKTSFSIRIAFFFILSFLAVSCHRDTDALNMTFSKVEKCMDLCPDSALNLLKGIHDPEKLWGESQATYALLMTQAMDKNYMKFSSDSLIALALNYYTITQTSPIMYAKALFYHGRVMLELDKEEEALKSFLAAKDVYERTKDHKMLALIAEEVGMINRKQDLYDDALTNFREALTTYKQLKDSLSVISASLNIARVYLFKSEWDSCSLYYNNALEIAVQKNYLSEITILHELGILYRSMQNLSEAERYFLAAYEKETDEEKKYMECLSLGYLYMQMGQTENARKYLIMSANSSKAYTQISAYDCLYFLEKDIDNFEEAIVYHELADSITNAMEELNSRELIASLQKKYENEKLRNDNLQMKVRYTNFILWGTIAFLFVVACMCYYYYKNRNNKKKIAEIELQIQENEEEIERYQQEIEDIQISKDQVLKENLMLEENRTKVGELNGKIVLLTMQNKTLSEHLKELGGELNVGISSGSFIHAFRLLLAIKEGTLRGKLSNEERQKLFSLFDLIYWNYVSRLLERAPTLTKHDLEICCFLKFGLSHEELSCIFHTTSDSVTRAKGRLKGRLGISPQDDLDLFLKEF | failed
MKTSLRLEDGTKNSLQIPIDLIIEIFLRLSVNSIARCRCVSKQWASTLSRPYFTELFLTRSLARPKLLFAYRKGSDYLFLSSPQLQNPDDDHKKSSPVVVNYHMHHILTLGSGNMSWRTIQCCIPHRSFDGGICIDGLIYYYAGVNNNDIVIVCFDVRSEEFRFIIGALHHGSLINYNGKLSLYLPSTVYSRFNGVIRSIKLWVLEDAKRQEWSEHTYILPAMHDIMKTTDLRCVGMTQTKEFVFWSIKGMRFYVFYYNIERNTIKKVEMQGMEAFKESNVYTFLDHVEDVKLMQFF | failed
MKTSVIISTYTKERYKDVLRCIESVRHQSLKPYEILLILDPVKSLVEYYKNIVPKDVRVVVSDGFGLSKARNKGVFEAKGDIIAFIDDDAWADDLWLEKIVENYSDEGVYGVGGKIIPVFENGRPKWLPEELDWIVGCTYKGMPEQRTNIRNPIGANMSFRREAFEIAGPFRSEIGRYGKKLLSGEEAEFAMRLRKIKPDAKIIYEPSAVVYHKVPKSRVRISYAVKRAFYEGYSKAILAKEFPLEMESKYLNFILRSILRKLLSKGQQIEALVMSVIVMTVGIGNLYGTCRILLRK | failed
MKTVLAFGDSLTWGADPATGLRHPVEHRWPDVLEAELAGKAKVHPEGLGGRTTCYDDHAGPACRNGARALEVALSCHMPLDLVIIMLGTNDIKPVHGGRAEAAVSGMRRLAQIVETFIYKPREAVPKLLIVAPPPCVAGPGGEPAGGRDIEQS | not failed
MKTVRCSILGFGAIGQGVAEVLLMKKEYLESIGLEIIVVAVVDSRGATINPEGVDLADCLARKRTTGTVAIEKITGVEVIKSIDHDLVIETTPTNIVTGGAGLQNMFAAFEIGKDVITSNKGPLTLKYRELMEAAKVAGSSFRFEATVGGSMPIINLANEVLAGNRLKSIKGILNGTCNYILTRMLEERASYKDILAESMELGIAETDPTYDVDGIDTACKLVILANAIFGLNATYKDVEVTGITKITPEALEMAYERGHVIKLIGEVSRERIHVAPRLVPINHPLDVRGTLNVASIDTELAGEITVTGKGAGPVETASAILSDLIAIYGNQLEHHHHHH | not failed
MKTVVIGAGLGGLLSAARLSKAGHEVEVFERLPITGGRFTNLSYKGFQLSSGAFHMLPNGPGGPLACFLKEVEASVNIVRSEMTTVRVPLKKGNPDYVKGFKDISFNDFPSLLSYKDRMKIALLIVSTRKNRPSGSSLQAWIKSQVSDEWLIKFADSFCGWALSLKSDEVPVEEVFEIIENMYRFGGTGIPEGGCKGIIDALETVISANGGKIHTGQEVSKILIENGKAAGIIADDRIHDADLVISNLGHAATAVLCSEALSKEADAAYFKMVGTLQPSAGIKICLAADEPLVGHTGVLLTPYTRRINGVNEVTQADPELAPPGKHLTMCHQYVAPENVKNLESEIEMGLEDLKEIFPGKRYEVLLIQSYHDEWPVNRAASGTDPGNETPFSGLYVVGDGAKGKGGIEVEGVALGVMSVMEKVLGLEHHHHHH | not failed
MKTWIFICMSIAMLLWFLSTLRRKPSQKKGCIDAIIPAYNEGPCLAQSLDNLLRNPYFCRVICVNDGSTDNTEAVMAEVKRKWGDRFVAVTQKNTGKGGALMNGLNYATCDQVFLSDADTYVPPDQDGMGYMLAEIERGADAVGGIPSTALKGAGLLPHIRATVKLPMIVMKRTLQQLLGGAPFIISGACGMFRTDVLRKFGFSDRTKVEDLDLTWTLVANGYRIRQANRCIVYPQECNSPREEWRRWRRWIVGYAVCMRLHKRLLFSRFGIFSIFPMLLVVLYGVGIYLTTWFNEFITTGPHGVVLAMFPLIWVGVVCVIGAFSAWFHRCWLLVPLAPLSVVYVLLAYAIWIIYGLIAFFTGREPQRDKPTRYSALVEASTAYSQPSVTGTEKLSEA | failed
MKVAGDKIKQARKLKKITQSELANGICTQATISNIENRNLCDSLDIFSSICLRLDLEVEECMMISEEKKIENLLNKVEDLSLRLFHLEAYNLLQEVPEGLILSNNELTTKLLYYKGITCLLGKKDKAEALFYLYRGAEIDRKVNIYNILSLNALGTLYELEKDMRKAQVYYEKSLQELEQFKLECSLERCRIYYNSAKFYSEMKDYQKSVILSEKGIQICRDKHSIYLLDYLLYEKAFNKQMLGEDTADDYRQAYYFTQFFGNTEVLQYIEKDMKAFNISY | failed
MKVAIMGAGAVGCYYGGMLARAGHEVILIARPQHVQAIEATGLRLETQSFDEQVKVSASSDPSAVQGADLVLFCVKSTDTQSAALAMKPALAKSALVLSLQNGVENADTLRSLLEQEVAAAVVYVATEMAGPGHVRHHGRGELVIEPTSHGANLAAIFAAAGVPVETSDNVRGALWAKLILNCAYNALSAITQLPYGRLVRGEGVEAVMRDVMEECFAVARAEGVKLPDDVALAIRRIAETMPRQSSSTAQDLARGKRSEIDHLNGLIVRRGDALGIPVPANRVLHALVRLIEDKQQHG | not failed
MKVDDTEEASQKPEDILAQGKDEARLSLEERRKLFQSKGLSAEESLVSVSTEDTLFQKEEDSKVYPLSMTWSFGWNSSLPVYYMREDRRVILYTCAHTAIMYDVVRNTQYHLQGHPNIISCLCVSEDRRWIATADEGPDCLIIIWDSFTGIPVHTIFDSCPEGNGMRSIAITRDSKFLATISDSATQKVCIWKWTLAVETPACTLELPKEYGFQDNLVFNPANNKELVSNSKTQAIYYCWFEDKGILAHSAPVLTEKTFNKLVGKFSQSVFHLKLPQVLSATKEGKLVVWDIHYPSSTSSSAISAFPFIKPRKLVHLQKEAITVLMTIDSYIVTGDIKGNIKFYDHTLSVVNWYSNFKLGAIRTLSFSKTIPSLPTEKSNLPTDCTLRGDLFVVRNFIIGTFDATVYHMTVDGTKLEKLFVEPRDAVYAVSCHPYQPLIAVGSVCGMIKVWDFEKKVYLFSRTFEKGLGVQCLTYNPEGALLGAGFTEGTVYILDAMSLENESPEPFKYSKSSVSHCCFSHDSNYMATADVNFTVAVYMVVVKNGQRVWEYLARLRSHQNSIQSLLFGVHLDSNEPRLLSLGKDRFLIEYNLVKSCKDHLDVLDVHRTDQGNYPTCMIWYPPLTKELFLLICNSGYKVKLFNATTKMCRKTLLGPAYGSPIEHAQVLPVKSTLELQKRYLVFINKDKVGLQILPVDGNPHKTCAIVCHPNGVAGMALSYDGRFAFTAGGQDRSVVQWKINLGALEAAVSLGGEDLTPFYGLVSGGREGKFYRELEDYFYYSQIRSQGIDTMETRQVSEHICLSELPFVMRAIGFYPSEEKIEDMFNEIKFSEYVETGKLIDKINLPDFLKVYLNHRPPFGNTMDGIQNSFNVLGYTNSEGKKAIRREDFLNLLLTKGEHMTEEEMIDCFSTLFGLTPEGWKSEPAATCINGPEICLQKELPEEITAEIFTTEILGLTLSDSSEQLIQ | failed
MKVFDVHKFDMKKEQDFLQVQFNLKNRINLSPTIHPDSINTGAGVDLAYWEQDGEPYGVCCIIVIDADTKEVIEKVHSMGRISVPYVSGFLAFRELPLIIEAAKKLETEPDVFLFDGNGYLHYNHMGVATHAAFFLGKPTIGIAKTYLKIKGCDFVTPEIEVGAYTDIIIDGEVYGRALRTRRDVKPIFLSCGNYIDLDSSYQITMSLINQESRLPIPVRLADLETHVLRTFYQKNHVLEHHHHHH | not failed
MKVFITGGTGFVGSAVVQELVANGFEVVGLARSETSAQKLISWGAQPVRGSLTSLSTLATAAAQADAIIHLGFNNDFRHFFQAGAMDRRAIETMGRAISGTNKPLVVTYGTTGIRKHVETEHEVADTGLLKWLTPRKSEIVARQLMAQNINAFVVRLSPAVHGAGDMGFTRTVIERAKKSHRAEYFGLGTHAWSAVHRLDAAHLFYLVTMYGLEHPTTNERVFNAVAEESITIAAIARTISRKLNVPLKAKYNPLSFGDTAMLYLINCPTSSQLTRQILGWVPVQPDLLTDISSSRYLEHHHHHH | failed
MKVFTEKIPNIPWEERPEGYTGPVWRYSKNPIIGRNPVPKGARVFNSAVVPYNGEFVGVFRIDHKNTRPFLHFGRSKDGINWEIEPEEIQWVDVNGEPFQPSYAYDPRVVKIEDTYYITFCTDDHGPTIGVGMTKDFKTFVRLPNAYVPFNRNGVLFPRKINGKYVMLNRPSDNGHTPFGDIFLSESPDMIHWGNHRFVLGRSSYNWWENLKIGAGPYPIETSEGWLLIYHGVTLTCNGYVYSFGAALLDLDDPSKVLYRSRYYLLTPEEEYETVGFVPNVVFPCAALCDADTGRVAIYYGAADTHVALAFGYIDEIVDFVKRNSM | not failed
MKVIEVTHPIQSNQFITENVAMAFGFFDGMHRGHDKVFQVLDEKAKEHQLKKAVMTFDPHPSVVLNPERKRTTYLTPLSDKLEMIAEHGIDYCIVINFSSRFANVTSDDFIKNYIINNHVKEVIAGFDFTFGKFGKGNMTVLQESKAFNTTIVGKQEMDSEKISTTAIRQALTDGHLQKANDELGYIYRIKGTVVQGEKRGRTIGFPTANVQPSDDYVLPKKGVYAVSMEIGPESKLHRGVANVGVKPTFHDPTRAELVIEVNIFDFNENIYGERVTVYWHHFLRPEVKFDGIDPLVKQMNEDKAQAKHLLSIDFDDDISYNI | failed
MKVIILGSGSYSGTPKPLCTCENCTRARINPAFRRTRFSVYIEGGILIDPGPDLHYHLEKLNKEVETILITHAHFDHIFGLPDAQVFKKLTIASNPLGIKVARSLAMLAFNSEAPLGNDWDYVELKFWNEYKVNGVKVIHFPVVHSIEMAGGFLIERKNKTVAITGDTGPEIIRDSEVIDLIKGSDLLISEMTHKESIPKTHLGVNDAIELAKIVKAEQTVFAHISHSNYPQEILEKKVREAKISGIVARDFTIIEI | failed
MKVIKGLTAGLIFLFLCACGGQQIKDPLNYEVEPFTFQNQDGKNVSLESLKGEVWLADFIFTNCETICPPMTAHMTDLQKKLKAGNIDVRIISFSVDPENDKPKQLKKFAANYPLSFDNWDFLTGYSQSEIEEFALKSFKAIVKKPEGEDQVIHQSSFYLVGPDGKVLKDYNGVENTPYDDIISDVKSASTLK | not failed
MKVKIGLKCSDCEDINYSTTKNAKTNTEKLELKKFCPRENKHTLHKEIKLKS | failed
